Patent US20240124593A1

Target: human FcRn (human) (UniProt P55899)
Assay: SPR Biacore 3000, antibody immobilised on CM5, hFcRn analyte, pH 7.5, 25 C, 1:1 fit

- Kd: 1.9 nM
Substance: DX-2504 (antibody)
